Assay results as given in article PMC8688357 (Frontiers in Microbiology, 2021).

Molecular target: T1, recombinant biotin peptide-6 x His-tagged SARS-CoV-2 N protein (SARS-CoV-2 N-Bio-His6), biotinylated (SARS-CoV-2, UniProt P0DTC9 1-419)
T1 construct: also called recombinant SARS-CoV-2 N fusion protein
Assay: ELISA
Conditions: both partners purified

B1: SARS-CoV-2 Spike CD-Fc (fusion protein containing the SARS-CoV-2 Spike C-terminal domain and the human IgG1 Fc domain) (Fc fusion)
chain: LCCMTSCCSCLKGCCSCGSCCKFDEDDSEPVLKGVKLHYT
notes: also called recombinant SARS-CoV-2 Spike CD fusion protein
binding result: binds
